Laboratory results published in patent US20050100897A1, “NFAT transcription factors in tumor progression” (priority 2002, published 2005).

Columns and labels:
Type in all cases: cell-based, human
[1] = tested on: MDA-MB-435 β4+-expressing cells (3A7); experiment: Matrigel chemoinvasion assay, MDA-MB-435 β4+ transfectants; conditions: transient transfection; NIH 3T3 conditioned media as chemoattractant
Protocol: Following the transfection protocol, the ability of the transfected cells to invade Matrigel was assayed. The data are shown as the relative invasion of NFAT transfected cells compared to vector alone-transfected cells (100%). The data shown are mean values (±SEM) of 2 experiments performed in triplicate.
(§1) Invasion assays were performed using standard methods (see Shaw et al., Cell 91:949-960, 1997) using Transwell chambers coated with Matrigel. Briefly, cells were co-transfected with the indicated NFAT constructs, 1 μg EGFP-N1 (Clontech) and 1 μg pCS2-(n)β-Gal, a •gal expression vector (Dave Turner, University of Michigan) using the Lipofectamine procedure (Life Technologies), and after twenty-four hours, the cells were resuspended in serum-free medium containing 0.1% bovine serum albumin (BSA) and added to each well. […] Cells that stained positive for β-galactosidase expression were counted, and the mean of triplicate assays for each experimental condition was used as % relative invasion.

[2] = tested on: Clone A colon cancer cell line; experiment: Matrigel chemoinvasion assay, Clone A cells; conditions: transient transfection
Protocol: as §1

[3] = tested on: MDA-MB-231 cells; experiment: Matrigel chemoinvasion assay, MDA-MB-231 cells; conditions: transient transfection
Text: FIGS. 3A-3C show the role of NFAT-5 in mediating carcinoma invasion. FIG. 3A is a graph showing luciferase levels in MDA-MB-435 cells expressing vector alone, β4.ΔCYT (3C12), or wild-type β4^+ (3A7 clone) that were transiently transfected with an NFAT-5-luciferase reporter construct (NFAT-5-luc). Luciferase activity is shown as relative luciferase units. […] The lysates were resolved by SDS PAGE and immunoblotted with anti-NFAT-5 (α-NFAT-5, top panel) or anti-p85 (α-p85, bottom panel) The position of the 175 kDa and 90 kDa markers are indicated (left). […] The ability of the transfected cells to invade Matrigel was then assayed and the data are shown as the relative invasion of NFAT-5-transfected cells compared to vector alone-transfected cells (100%).
Invasion assays were performed using standard methods (see Shaw et al., Cell 91:949-960, 1997) using Transwell chambers coated with Matrigel. […] Cells that stained positive for β-galactosidase expression were counted, and the mean of triplicate assays for each experimental condition was used as % relative invasion. […]

[4] = tested on: NFAT-5 transcriptional activity; experiment: NFAT-5-luc luciferase reporter assay in MDA-MB-435 β4+ (3A7) cells; conditions: co-transfected with dominant negative NFAT-5 (GFP-ND5)
Protocol: FIGS. 4A-4D are graphs showing that NFAT-5 transcriptional activity is induced in an α6β4-dependent manner. FIG. 4A is a graph showing NFAT-5 transcriptional activity in control parental cells, β4 (3A7), and β4.ΔCYT (3C12) MDA-MB-435 transfectants that were transiently transfected with NFAT-5-luc. The cells were grown in complete media for twenty-four hours, trypsinized, incubated with anti-α6 (clone 135-13C) for 30 minutes, then plated onto secondary antibody-coated plates, either in the presence (+) or absence (−) of NIH 3T3 conditioned medium (CM), for twenty-four hours. As a positive control, cells were also stimulated with PMA (phorbol 12-myristate 13-acetate) and ionomycin (100 nM each) for twenty-four hours. Following stimulation, cells were lysed and NFAT-5 transcriptional activity was assayed. […] NFAT-5 transcriptional activity was measured as described above. […] NFAT-5 transcriptional activity was measured as described above. […]
Cells were transiently co-transfected with an NFAT luciferase reporter construct (NFAT-luc, 10 μg) and 1 μg pCS2-(n)β-gal using the Lipofectamine procedure (Life Technologies). Twenty-four hours after the transfection, luciferase and beta-galactosidase assays were performed using standard assays on total cell lysates and measured on a luminometer. […]

B1: ND5: dominant negative NFAT-5 mutant, amino acids 1-471 (SEQ ID NO:17) of NFAT5a; blocks dimerization of endogenous NFAT-5 (protein, listed as Homo sapiens)
chain: MGGACSSFTTSSSPTIYSTSVTDSKAMQVESCSSAVGVSNRGVSEKQLTSNTVQQHPSTPKRHTVLYISPPPEDLLDNSRMSCQDEGCGLESEQSCSMWMEDSPSNFSNMSTSSYNDNTEVPRKSRKRNPKQRPGVKRRDCEESNMDIFDADSAKAPHYVLSQLTTDNKGNSKAGNGTLENQKGTGVKKSPMLCGQYPVKSEGKELKIVVQPETQHRARYLTEGSRGSVKDRTQQGFPTVKLEGHNEPVVLQVFVGNDSGRVKPHGFYQACRVTGRNTTPCKEVDIEGTTVIEVGLDPSNNMTLAVDCVGILKLRNADVEARIGIAGSKKKSTRARLVFRVNIMRKDGSTLTLQTPSSPILCTQPAGVPEILKKSLHSCSVKGEEEVFLIGKNFLKGTKVIFQENVSDENSWKSEAEIDMELFHQNHLIVKVPPYHDQHITLPVSVGIYVVTNAGRSHDVQPFTYTPDPAA
carcinoma invasion (relative invasion vs vector alone) [1]: significantly inhibited invasion
carcinoma invasion (relative invasion vs vector alone) [2]: significantly inhibited invasion
carcinoma invasion (relative invasion vs vector alone) [3]: significantly inhibited invasion
co-stimulated NFAT-5 transcriptional activity (α6β4 + conditioned media, or PMA/ionomycin) [4]: inhibited
